One block for each binder: values may come before it.
Legend:
Csm2;Psy3 [1] = target: T1, Csm2;Psy3 (Saccharomyces cerevisiae;Saccharomyces …, UniProt P40465;Q12318 1-213;1-242, |); test: competition
T1 sequence 1: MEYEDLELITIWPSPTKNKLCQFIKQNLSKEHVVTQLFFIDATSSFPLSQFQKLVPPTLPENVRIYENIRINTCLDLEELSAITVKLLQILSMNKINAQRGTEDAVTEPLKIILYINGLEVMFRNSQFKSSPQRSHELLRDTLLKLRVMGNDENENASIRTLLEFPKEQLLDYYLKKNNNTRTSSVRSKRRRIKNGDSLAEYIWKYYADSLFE
T1 sequence 2: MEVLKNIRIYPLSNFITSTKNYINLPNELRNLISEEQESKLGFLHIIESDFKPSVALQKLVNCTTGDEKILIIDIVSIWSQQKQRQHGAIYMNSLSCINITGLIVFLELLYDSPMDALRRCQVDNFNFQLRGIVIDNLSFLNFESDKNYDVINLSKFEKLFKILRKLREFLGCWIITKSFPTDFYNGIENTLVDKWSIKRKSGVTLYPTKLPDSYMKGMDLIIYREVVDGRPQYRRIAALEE

Csm2;Psy3 [2] = target: T1, Csm2;Psy3; test: fluorescence anisotropy
Psy3 = target: T2, Psy3 (S. cerevisiae, UniProt Q12318 1-242); test: SEC
T2 sequence: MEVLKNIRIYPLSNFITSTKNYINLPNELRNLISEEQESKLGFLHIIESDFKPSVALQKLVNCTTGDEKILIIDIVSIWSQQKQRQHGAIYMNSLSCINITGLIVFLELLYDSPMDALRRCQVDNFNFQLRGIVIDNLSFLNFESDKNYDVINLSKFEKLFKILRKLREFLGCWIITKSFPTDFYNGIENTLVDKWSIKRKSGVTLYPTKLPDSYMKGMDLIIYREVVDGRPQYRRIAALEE

B1: 3'-overhang (mixed)
DNA 1: CTGCGAGCTCGAATTCACTGGAGTGACCTC
DNA 2: GAGGTCACTCCAGTGAATTCGAGCTCGCAGTGTCTAGGTCGTGACTTTGA
binding result (Csm2;Psy3 [1]): binds

B2: fluorescein-labelled fork (mixed)
DNA 1: TTTTTTTTTTTTTTTTTTTTCTTGACAAGCTTGCGCACT
DNA 2: AGTGCGCAAGCTTGTCAAGGCACTTTTTTTTTTTTTTTT
Kd (Csm2;Psy3 [2]): 361 ± 10.9 nM

binding result (Psy3): binds
B3: Csm2 (natural protein)
chain: MEYEDLELITIWPSPTKNKLCQFIKQNLSKEHVVTQLFFIDATSSFPLSQFQKLVPPTLPENVRIYENIRINTCLDLEELSAITVKLLQILSMNKINAQRGTEDAVTEPLKIILYINGLEVMFRNSQFKSSPQRSHELLRDTLLKLRVMGNDENENASIRTLLEFPKEQLLDYYLKKNNNTRTSSVRSKRRRIKNGDSLAEYIWKYYADSLFE
